In article PMC8277577 (Nature, 2021):
Substitutions are numbered along the chain they refer to.

B1: C960 (antibody, V domains shown)
VH: QVQLVESGGGVVQPGRSLTLSCTASGFTFNRFAMFWVRQAPGKGLEWVAVISFDGSYEHYAESVKGRFAIFRDNPKNTLYLQMNSLRAEDTAVYYCAKSPINYCANGVCYPDSWGQGTLVTVSS
VL: NFMLTQPHSVSESPGKTVTISCTGSSGSIANNYVQWYQQRPGSAPTTVIFEDTQRPSGVPDRFSGSIDSSSNSASLNISGLKPEDEADYYCQSFDVNSRWVFGGGTKLTVL
notes: source: recombinant, purified
B2: C1008 (antibody, V domains shown)
VH: EVQLVESGGGLIQPGGSLRLSCAASGFTVSSNYMSWVRQAPGKGLEWVSVIYSGGSTYYADSVKGRFTISRDNSKNTLYLQMNSLRAEDTAVYYCARVVGYDFWSGYDGGYFDYWGQGTLVTVSS
VL: QSALTQPASVSGSPGQSITISCTGTSSDVGSYNLVSWYQQHPGKAPKLMIYEVSKRPSGVSNRFSGSKSGNTASLTISGLQAEDEADYYCCSYAGSSTWVFGGGTKLTVL
notes: source: recombinant, purified
B3: C1009 (antibody, V domains shown)
VH: EVQLVESGGGLLQPGGSLRLSCAASGFSVSSNYMTWVRQAPGKGLEWVAAIYSGDSTYYVDSVKGRFIISRDNSKNTVYLHLSSLRAEDTAVYYCARLVGYDFRSGSDGGYFDYWGHGTLVTVSS
VL: B2 VL with V29I, S31N, E52D, A86T
notes: source: recombinant, purified
B4: C108 (antibody, V domains shown)
VH: QVQLQESGPGLVKPSGTLSLTCAVSGGSISSTNWWSWVRQPPGKGLEWIGEIYHTGSTNYNPSLKSRVTISVDKSKNQFSLKLSSVTAADTAVYYCVRDGGRPGDAFDIWGQGTMVTVSS
VL: B2 VL with S31G, L34Y, E52D, K55N, C91N, A94T, G95S, W99R, G103T, L107V
notes: source: recombinant, purified
B5: C951 (antibody, V domains shown)
VH: B4 VH with G10R, S31T, Y53H, T55S, S57N, K74R, Y95F, V97A, A106P
VL: QSALTQPASVSGSPGQSITISCTGTSSDVGGYNYVSWYQQHPGKAPNLMIYDVSDRPSGVSNRFSGSKSGNTASLTISGLQAEDEADYYCNSFTSNSTRVFGTGTKVTV
notes: source: recombinant, purified
B6: C581 (antibody, V domains shown)
VH: EVQLVQSGAEVKKPGESLKISCKGSGYRFTSYWIAWVRQMPGKGLEWMGIIYPGDSDTRYSPSFQGQVTISADQSISTAYLQWSSLKASDTAMYYCARGGPPGGVKLELTDYWGQGALVTVSS
VL: not shown
notes: source: recombinant, purified
B7: C908 (antibody, V domains shown)
VH: B6 VH with G24A, R28S, S31I, A35G, D55E, D57E, Q74K, S84R, A117T
VL: not shown
notes: source: recombinant, purified
B8: C1010 (antibody, V domains shown)
VH: QVQLVESGGGVVQPGRSLRLSCAASGFTFSSYAMHWVRQAPGKGLEWVAVISYDGSNKYYADSVKGRFTISRDNSKNTLYLQMNSLRAEDTAVYYCAKKGQPYCGGDCYFYYFDYWGQGTLVTVSS
VL: DIQMTQSPSSLSASLGDRVTITCQASQDISNYLNWYQQKPGKAPKLLIYDASNLETGVPSRFSGSGSGTDFTFTISSLQPEDIATYYCQQYDNLPPITFGQGTRLEIK
notes: source: recombinant, purified
B9: C1011 (antibody, V domains shown)
VH: QVQLVESGGGVVQPGRSLRLSCAVSGFTFSHYAMHWVRQAPGKGLEWVAVISYDGADKYYADSVRGRFTIARDNSKNTLFLQMSSLRPEDTAVYYCAKKGQPYCGGDCHFYYLDYWGQGTLVTVSS
VL: B8 VL with L15V, Y32H, P80A
notes: source: recombinant, purified
B10: C954 (antibody, V domains shown)
VH: QVQLVQSGAEVKKPGSSVKVSCKASGDTFTNYAFSWMRQAPGQGLEWMGRIIPILGIVKYSQKFQDRVRISADKSTSTAYMDLSSLRSEDTAMYYCARDSEFSTSWFSRGYHGMDVWGQGTTVTVSS
VL: DIVMTQSPLSLPVTPGEPASISCRSSQSLLHGDGYNYLDWYLQKPGQSPHLLIYLGSNRTSGVSDRFSGSGSGTDFTLKISRVEAEDVGVYYCMQALQTPPTFGGGTKVEIK
notes: source: recombinant, purified
B11: C841 (antibody, V domains shown)
VH: EVQLVESGGGLVQPGGSLRLSCAASGFTFSIFSMNWVRQAPGKGLEWISYISSSSGSRHYADSVKGRFTISRDNAKNSLYLQMNNLRDEDTAMYYCAREAHDGALTGYGDYLNWFDPWGQGVLVTVSS
VL: SYELTQPPSVSVAPGKTARIPCGGDSVGSKSVHWYQQKSGQAPVLVIHSDSDRPSGIPERFSGSNSGNTATLTITGVAAGDEADYYCHVWDTIGDRFYWVFGGGTKLTVL
notes: source: recombinant, purified
B12: C953 (antibody, V domains shown)
VH: QVQLVQSGAEVKKPGSSVKVSCKASGGTFSSYAISWVRQAPGQGLEWMGRIIPILGIANYAQKFQGRVTITADKSTSTAYMELSSLRSEDTAVYYCARDSEYSSSWYSRGYYGMDVWGQGTTVTVSS
VL: not shown
notes: source: recombinant, purified
B13: C916 (antibody, V domains shown)
VH: EVQLVESGGGLVQPGGSLRLSCAASGFTFSNYDMHWVRQATGRGLEWVSTIGTAGDTYYPGSVKGRFTISRENAKNSLYLQMNSLRAGDTALYYCARVRYDSSGYFWSLDYWGQGTLVTVSS
VL: not shown
notes: source: recombinant, purified
B14: C917 (antibody, V domains shown)
VH: B13 VH with R43K, E46D, L92V, Y100F, S102T
VL: not shown
notes: source: recombinant, purified
B15: C936 (antibody, V domains shown)
VH: EVQLVESGGGLIQPGGSLRLSCAASGFTVSSNYMSWVRQAPGKGLEWVSVIYSGGSTFYADSVKGRFTISRDNSKNTLYLQMNSLRAEDTAVYYCARDLGTGLFDYWGQGTLVTVSS
VL: DIQLTQSPSFLSASVGDRVTITCRASQGISSYLAWYQQKPGKAPKLLIYAASTLQSGVPSRFSGSGSGTEFTLTISSLQPEDFATYYCQQLDSYPPGTFGPGTKVDIK
notes: source: recombinant, purified
B16: C1015 (antibody, V domains shown)
VH: QVQLQESGPRLVKPSGSLSLTCAVSGGSLSSSNWWNWVRQSPEKGLEWIGEIFHSGSTYYNPSLKSRVTISVDKSKNHFSLNLRSVTAADTAVYYCAGSYSNYIGGVWFDPWGQGTLVTVSS
VL: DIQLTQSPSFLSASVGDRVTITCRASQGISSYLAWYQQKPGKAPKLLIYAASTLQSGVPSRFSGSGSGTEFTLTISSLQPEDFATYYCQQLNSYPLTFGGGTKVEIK
notes: source: recombinant, purified

The binders below were run against T1, SARS-CoV-2 receptor binding domain (RBD) (SARS-CoV-2, GenBank MN985325.1 …, UniProt P0DTC2) (assay: BLI). Conditions: both partners purified.
With B1 the Kd was 1.5 nM. For B2, the Kd was 208 nM. With B3 the Kd was 4.79 nM. With B4 the Kd was 21.5 nM. For B5, the Kd was 3.34 nM. B6 showed a Kd of 0.0725 nM. For B7, the Kd was 0.00384 nM. With B8 the Kd was 16.3 nM. Binder B9 has a Kd of 0.0121 nM. With B10 the Kd was 1.47 nM. B11 showed a Kd of 6.08 nM. In the case of B12, the Kd is reported as 620 nM. With B13 the Kd was 2.92 nM. Work on B14 yielded a Kd of 0.999 nM. With B15 the Kd was 157 nM.

These binders were tested against T1, SARS-CoV-2 receptor binding domain (RBD) (assay: ELISA). Conditions: both partners purified.
B16: no binding (tested: >1000 ng/ml).
